Reference: patent US20240294622A1 (SUZHOU TRANSCENTA THERAPEUTICS, published 2024)

Key:
HGREM1-His (ACRO) [1] = biological target: T1, HGREM1-His (ACRO) (human, UniProt O60565 25-184); test: ELISA on coated hGREM1 (Example 5: ACRO; sheet title: DAN Family,R&D,0.5ug/ml), anti-mouse IgG-HRP
T1 construct: Lys25-Asp184 of NP_037504 with C-terminal polyhistidine tag (ACRO GR1-H52H3); they are put here; also called hGREM1 (ACRO); human gremlin (ACRO)
T1 sequence: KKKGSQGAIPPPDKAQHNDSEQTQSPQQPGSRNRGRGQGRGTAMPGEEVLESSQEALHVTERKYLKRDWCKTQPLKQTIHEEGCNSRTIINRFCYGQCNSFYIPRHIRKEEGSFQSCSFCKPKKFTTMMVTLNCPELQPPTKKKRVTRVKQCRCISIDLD
Description: In addition, the specificity of the binding of 14E3 and a benchmark antibody was assessed with ELISA. Briefly, clear polystyrene plates (BEAVER) were coated with 100 μl/well of a […] hGREM1 (ACRO), or human gremlin-2 (R&D), human COCO (R&D) and human DAN protein (R&D) in high pH coating buffer overnight at 4° C. Then the plates were washed once on an automatic plate washer using PBS+0.1% Tween 20 (Sigma). 100 μl of block solution consisting of PBS+1% BSA+1% normal goat serum+0.5% Tween 20 (Sigma) was added to each well and incubated at room temperature for 2 hours. Then 100 ul of antibodies in antibody dilution buffer containing PBS+1% BSA+1% normal goat serum+0.01% Tween 20 starting from 2 μg/ml and then 5 fold serial dilution were added to each well of the plate and incubated for 1 hours at room temperature. Afterward the plates were washed three times with 200 ul of PBS+0.1% Tween20 followed by adding 100 μl/well 1:10000 Goat anti mouse IgG-HRP (Abcam), and incubate for 1 hour at room temperature. They were then washed 3× with PBS+0.1% Tween20. Finally, 100 µl/well of TMB (Pierce) was added to each well and after 5 minutes add 50 ul of stop solution to each well. The plates were read on a Multiscan FC microplate reader (Thermo Scientific) at […].

HGREM1-His (ACRO) [2] = biological target: T1, HGREM1-His (ACRO); test: blocking ELISA, Human Gremlin-1 binding to BMP7; column Percentage
Description: (§1) In addition, the ability of serial dilutions of antibodies provided herein to block Gremlin binding to human BMP2/4/7 was also examined via ELISA. Plates were coated with recombinant human BMP2/4/7 (0.5 μg/ml) overnight and then serial dilutions of antibodies were incubated with 1 μg/ml of human Gremlin-his modified for 1 h at RT before this complex was added to coated plates and allowed to incubate for an additional hour at RT. The plates were then washed and added with anti-his HRP (GenScript). Plates were then developed with a TMB solution and stopped by adding stop solution. The plates were read on a plate reader at 450 nm. […] The chimeric anti-gremlin 1 antibodies (69H5-chi) and chimeric anti-gremlin 1 antibodies (22F1-chi) also can inhibit the binding of gremlin to BMP2 and BMP4 (see, FIG. 3E and FIG. 3F). The chimeric anti-gremlin 1 antibodies (56C11-chi) can inhibit the binding of gremlin to BMP2 (see, FIG. 3E).

HGREM1-His (ACRO) [3] = biological target: T1, HGREM1-His (ACRO); test: blocking ELISA, Human Gremlin-1 binding to BMP7; column OD450
Description: as §1

HGREM1-His (ACRO) [4] = biological target: T1, HGREM1-His (ACRO); test: blocking ELISA, Human Gremlin-1 binding to BMP4; column OD450
Description: as §1

Binder | EC50 (read off the curve) (HGREM1-His (ACRO) [1]) [µg/mL] | IC50 (HGREM1-His (ACRO) [2]) [µg/mL] | IC50 (HGREM1-His (ACRO) [3]) [µg/mL] | IC50 (HGREM1-His (ACRO) [4]) [µg/mL]
14E3 (antibody, V domains shown, mouse hybridoma antibody; also called hybridoma 14E3; anti-gremlin1 antibody 14E3) VH: QIQLVQSGPELKKPGETVKISCKTSGSTFTTYGMAWMKQAPGKGLTWMGWINTLSGEPTYADDFKGRFAFSLKTSANTAYLQINNLKNEDAATYFCAREPMDYWGQGTSVIVSS VL: not shown | ~0.01 |  |  | 
36F5 (antibody, V domains shown, mouse hybridoma antibody; also called hybridoma 36F5) VH: QVQLQQSGAELARPGASVKLSCKASGYSFTSSGIGWVKQRSGQGLEWIGEIYPRSGNTYNNEKFKGKATLTADKSSSTVYMELRSLTSEDSAVYFCVREAYSHHYYAMDYWGQGTSVTVFS VL: DVLMTQTPLSLPVSLGGQASISCRSSQSLLHSNGNTYLEWYLQKPGQSPKLLIYKVSNRFSGVPDRLSGSGSGTDFTLKISRVEAEDLGVYYCFQGSHVPFTFGSGTKLEIN |  | 0.683 | 0.683 | 0.512
